Data as given in paper PMC3811051 (Nature methods, 2013).

Target: the molecule itself
Assay: SEC

B1: LanYFP, yellow fluorescent protein from Branchiostoma lanceolatum (natural protein, UniProt B1PNC0 1-219, looked up)
chain: MSLPATHELHIFGSFNGVDFDMVGRGTGNPNDGYEELNLKSTKGALQFSPWILVPQIGYGFHQYLPFPDGMSPFQAAMKDGSGYQVHRTMQFEDGASLTSNYRYTYEGSHIKGEFQVIGTGFPADGPVMTNSLTAADWCVTKMLYPNDKTIISTFDWTYTTGSGKRYQSTVRTNYTFAKPMAANILKNQPMFVFRKTELKHSKTELNFKEWQKAFTDVM
  stoichiometry N: 4
